Data on 10 molecules can be found in PMC7764042, “Interferon Beta Activity Is Modulated via Binding of Specific S100 Proteins” (International Journal of Molecular Sciences, 2020).

Data set [1] addresses T1, recombinant human interferon beta-1a (human, UniProt P01574 22-187).
T1 construct: human interferon beta (interferon beta-1a), UniProt P01574; Pharmaceutical interferon beta-1a; also called IFN-β; Interferon-β; source: bought: Merck (Rebif), produced in CHO-K1 cells
The experiment in a line: SPR; IFN-β immobilised on ProteOn GLH chip by amine coupling; Ca^2+-loaded S100 as analyte (0.25–5 µM S100A1, 0.5–5 µM S100A4/A6, 5 µM other S100); 25 °C; 10 mM HEPES, 150 mM NaCl, 0.01% TWEEN 20, pH 7.4, 1 mM CaCl2; heterogeneous ligand model. The settings on record: both partners purified. Background: Surface plasmon resonance follows binding to a sensor surface in real time, without labels.

Data set [2] concerns the molecule itself. The experiment in a line: SPR; estimate from the SPR data for 0.5 µM S100 analyte on immobilised IFN-β, 1 mM CaCl2; dimer to monomers, Ca^2+-loaded S100.

B1: recombinant human S100A9 (natural protein, UniProt P06702 1-114, looked up)
chain: MTCKMSQLERNIETIINTFHQYSVKLGHPDTLNQGEFKELVRKDLQNFLKKENKNEKVIEHIMEDLDTNADKQLSFEEFIMLMARLTWASHEKMHEGDEGPGHHHKPGLGEGTP
notes: human S100A9, Swiss-Prot P06702, gene cloned into pET-11a between NdeI and BamHI; also called S10A9; source: E. coli BL21(DE3)pLysS, purified (ammonium sulfate, anion exchange, cation exchange, gel filtration)
As usually defined, the Kd is a measure of binding affinity in units of concentration. As to B1, the Kd in data set [1] was not below 10 µM.

B2: recombinant human S100A4 (natural protein)
chain: not shown
notes: human S100A4, Swiss-Prot P26447, gene cloned into pHUE between SacII and HindIII; Made as a ubiquitin-S100 chimera and cut with Usp2; also called S10A4; source: E. coli BL21 (DE3) with pLacIRARE, purified (IMAC, Usp2 cleavage, anion exchange, gel filtration)
For B2, the dissociation constant (Kd) in data set [2] was not above 0.5 µM.

B3: recombinant human S100A1 (natural protein)
chain: GSELETAMETLINVFHAHSGKEGDKYKLSKKELKELLQTELSGFLDAQKDVDAVDKVMKELDENGDGEVDFQEYVVLVAALTVACNNFFWENS
notes: human S100A1, Swiss-Prot P23297, gene cloned into pHUE between SacII and HindIII; Made as a ubiquitin-S100 chimera and cut with Usp2; also called S10A1; source: E. coli BL21 (DE3) with pLacIRARE, purified (IMAC, Usp2 cleavage, anion exchange, gel filtration)
As to B3, the Kd in data set [2] was not above 0.5 µM.

B4: recombinant human S100A14 (natural protein, UniProt Q9HCY8 1-104, looked up)
chain: MGQCRSANAEDAQEFSDVERAIETLIKNFHQYSVEGGKETLTPSELRDLVTQQLPHLMPSNCGLEEKIANLGSCNDSKLEFRSFWELIGEAAKSVKLERPVRGH
notes: human S100A14, Swiss-Prot Q9HCY8, gene cloned into pHUE between SacII and HindIII; Made as a ubiquitin-S100 chimera and cut with Usp2; also called S10AE; source: E. coli BL21(DE3)-RIL, purified (IMAC, Usp2 cleavage, second IMAC, gel filtration)
Take B4: the Kd in data set [1] was not below 10 µM.

B5: recombinant human S100A13 (natural protein, UniProt Q99584 1-98, looked up)
chain: MAAEPLTELEESIETVVTTFFTFARQEGRKDSLSVNEFKELVTQQLPHLLKDVGSLDEKMKSLDVNQDSELKFNEYWRLIGELAKEIRKKKDLKIRKK
notes: human S100A13, Swiss-Prot Q99584, gene cloned into pET-11a between NdeI and BamHI; also called S10AD
B5: the equilibrium dissociation constant (Kd) in data set [1] was not below 10 µM.

B6: recombinant human S100A11 (natural protein, UniProt P31949 1-105, looked up)
chain: MAKISSPTETERCIESLIAVFQKYAGKDGYNYTLSKTEFLSFMNTELAAFTKNQKDPGVLDRMMKKLDTNSDGQLDFSEFLNLIGGLAMACHDSFLKAVPSQKRT
notes: human S100A11, Swiss-Prot P31949, gene cloned into pHUE between SacII and HindIII; Made as a ubiquitin-S100 chimera and cut with Usp2; also called S10AB; source: E. coli BL21 (DE3) with pLacIRARE, purified (IMAC, Usp2 cleavage, anion exchange, gel filtration)
Take B6: the Kd in data set [1] was not below 10 µM.

B7: recombinant human S100A12 (natural protein, UniProt P80511 1-92, looked up)
chain: MTKLEEHLEGIVNIFHQYSVRKGHFDTLSKGELKQLLTKELANTIKNIKDKAVIDEIFQGLDANQDEQVDFQEFISLVAIALKAAHYHTHKE
notes: human S100A12, Swiss-Prot P80511, gene cloned into pHUE between SacII and HindIII; Made as a ubiquitin-S100 chimera and cut with Usp2; also called S10AC; source: E. coli BL21 (DE3) with pLacIRARE, purified (IMAC, Usp2 cleavage, anion exchange, gel filtration)
With B7, the Kd in data set [1] is not below 10 µM.

B8: recombinant human S100A8 (natural protein, UniProt P05109 1-93, looked up)
chain: MLTELEKALNSIIDVYHKYSLIKGNFHAVYRDDLKKLLETECPQYIRKKGADVWFKELDINTDGAVNFQEFLILVIKMGVAAHKKSHEESHKE
notes: human S100A8, Swiss-Prot P05109, gene cloned into pHUE between SacII and HindIII; Made as a ubiquitin-S100 chimera and cut with Usp2; also called S10A8; source: E. coli BL21(DE3)-RIL, purified (IMAC, Usp2 cleavage, anion exchange, gel filtration)
B8: the Kd in data set [1] is not below 10 µM.

B9: recombinant human S100A7 (natural protein, UniProt P31151 1-101, looked up)
chain: MSNTQAERSIIGMIDMFHKYTRRDDKIEKPSLLTMMKENFPNFLSACDKKGTNYLADVFEKKDKNEDKKIDFSEFLSLLGDIATDYHKQSHGAAPCSGGSQ
notes: human S100A7, Swiss-Prot P31151, gene cloned into pHUE between SacII and HindIII; Made as a ubiquitin-S100 chimera and cut with Usp2; also called S10A7; source: E. coli BL21(DE3)-RIL, purified (IMAC, Usp2 cleavage, anion exchange, gel filtration)
Consider B9, for which the Kd in data set [1] is not below 10 µM.

B10: recombinant human S100A15 (S100A7A) (natural protein, UniProt Q86SG5 1-101, looked up)
chain: MSNTQAERSIIGMIDMFHKYTGRDGKIEKPSLLTMMKENFPNFLSACDKKGIHYLATVFEKKDKNEDKKIDFSEFLSLLGDIAADYHKQSHGAAPCSGGSQ
notes: human S100A15 (S100A7A), Swiss-Prot Q86SG5, gene cloned into pHUE between SacII and HindIII; Made as a ubiquitin-S100 chimera and cut with Usp2; also called A1A7A; source: E. coli BL21(DE3)-RIL, purified (IMAC, Usp2 cleavage, anion exchange, gel filtration)
Regarding B10, the Kd in data set [1] was not below 10 µM.
